Experiments:
Assay in all cases: holdup assay
Set-up in all cases: key: below the threshold = too weak to quantify, mostly under pKd 3.1 to 4
Settings in all cases: plain residues with an end cap or a label only (N-terminal biotin on a linker: ado-ado)
AHNAK1, Q09666 = molecular target: AHNAK1, Q09666
ARHGEF11, O15085 = molecular target: T1, ARHGEF11, O15085
T1 sequence (O15085 42-136, limits assumed, looked up): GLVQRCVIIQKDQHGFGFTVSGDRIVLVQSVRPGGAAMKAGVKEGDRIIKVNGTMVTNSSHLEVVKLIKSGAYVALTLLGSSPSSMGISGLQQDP

DLG1_1, Q12959 = molecular target: DLG1_1, Q12959
DLG1_3, Q12959 = molecular target: DLG1_3, Q12959
DLG3_1, Q92796 = molecular target: T2, DLG3_1, Q92796
T2 sequence (Q92796 125-227, limits assumed, looked up): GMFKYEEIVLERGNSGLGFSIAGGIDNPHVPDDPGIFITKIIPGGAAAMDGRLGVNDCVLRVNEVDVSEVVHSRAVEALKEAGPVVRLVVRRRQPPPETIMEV

DLG3_2, Q92796 = molecular target: T3, DLG3_2, Q92796
T3 sequence (Q92796 221-321, limits assumed, looked up): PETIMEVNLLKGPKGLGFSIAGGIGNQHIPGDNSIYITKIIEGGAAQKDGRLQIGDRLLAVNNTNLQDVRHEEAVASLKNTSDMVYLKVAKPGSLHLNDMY

DLG4_2, P78352 = molecular target: DLG4_2, P78352
Chain of DLG4_2, P78352 (P78352 155-259): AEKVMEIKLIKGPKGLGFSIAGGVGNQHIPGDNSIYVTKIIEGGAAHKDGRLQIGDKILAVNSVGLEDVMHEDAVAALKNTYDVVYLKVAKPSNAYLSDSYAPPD

DLG4_3, P78352 = molecular target: DLG4_3, P78352
Chain of DLG4_3, P78352 (P78352 306-403): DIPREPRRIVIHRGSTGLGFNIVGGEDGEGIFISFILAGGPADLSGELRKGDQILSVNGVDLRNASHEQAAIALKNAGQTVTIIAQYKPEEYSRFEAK

FRMPD3, Q5JV73 = molecular target: FRMPD3, Q5JV73
Chain of FRMPD3, Q5JV73 (Q5JV73 12-100): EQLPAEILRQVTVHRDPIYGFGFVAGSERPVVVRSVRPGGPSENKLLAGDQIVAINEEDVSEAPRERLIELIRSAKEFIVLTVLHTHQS

GOPC, Q9HD26 = molecular target: GOPC, Q9HD26
GORASP2, Q9H8Y8 = molecular target: GORASP2, Q9H8Y8
GRASP, Q7Z6J2 = molecular target: GRASP, Q7Z6J2
Chain of GRASP, Q7Z6J2 (Q7Z6J2 96-193): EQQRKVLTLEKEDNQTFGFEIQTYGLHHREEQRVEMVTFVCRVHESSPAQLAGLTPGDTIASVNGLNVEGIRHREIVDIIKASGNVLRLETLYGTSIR

GRIP1_5, Q9Y3R0 = molecular target: T4, GRIP1_5, Q9Y3R0
T4 sequence (Q9Y3R0 568-668, limits assumed, looked up): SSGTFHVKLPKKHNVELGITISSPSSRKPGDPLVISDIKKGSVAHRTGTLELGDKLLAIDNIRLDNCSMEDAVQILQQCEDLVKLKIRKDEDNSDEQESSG

IL16_1, Q14005 = molecular target: IL16_1, Q14005
Chain of IL16_1, Q14005 (Q14005 210-306): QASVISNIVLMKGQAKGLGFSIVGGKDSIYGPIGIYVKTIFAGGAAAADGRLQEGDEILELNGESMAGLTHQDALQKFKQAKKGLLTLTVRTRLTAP

LDB3, O75112 = molecular target: LDB3, O75112
Chain of LDB3, O75112 (O75112 1-94): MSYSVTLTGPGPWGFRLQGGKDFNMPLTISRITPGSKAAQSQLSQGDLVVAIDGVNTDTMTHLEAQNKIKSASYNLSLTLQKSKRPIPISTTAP

LIN7A, O14910 = molecular target: T5, LIN7A, O14910
T5 sequence (O14910 103-200, limits assumed, looked up): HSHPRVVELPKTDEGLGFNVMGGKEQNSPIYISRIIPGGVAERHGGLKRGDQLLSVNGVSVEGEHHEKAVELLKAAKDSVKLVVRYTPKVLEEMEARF

MAGI1_2, Q96QZ7 = molecular target: MAGI1_2, Q96QZ7
Chain of MAGI1_2, Q96QZ7 (Q96QZ7 456-580): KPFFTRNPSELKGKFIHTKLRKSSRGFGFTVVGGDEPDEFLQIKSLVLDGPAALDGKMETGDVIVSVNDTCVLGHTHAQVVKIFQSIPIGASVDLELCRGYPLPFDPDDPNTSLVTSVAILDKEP

MAGI2_2, Q86UL8 = molecular target: MAGI2_2, Q86UL8
Chain of MAGI2_2, Q86UL8 (Q86UL8 410-522): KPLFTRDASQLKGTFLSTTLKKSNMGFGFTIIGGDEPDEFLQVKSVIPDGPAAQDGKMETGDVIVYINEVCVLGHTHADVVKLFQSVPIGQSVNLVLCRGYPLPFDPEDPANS

MAGI3_2, Q5TCQ9 = molecular target: MAGI3_2, Q5TCQ9
Chain of MAGI3_2, Q5TCQ9 (Q5TCQ9 398-503): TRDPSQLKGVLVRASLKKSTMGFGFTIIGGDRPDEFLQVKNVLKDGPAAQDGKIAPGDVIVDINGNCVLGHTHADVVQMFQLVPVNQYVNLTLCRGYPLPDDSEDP

MPP6, Q9NZW5 = molecular target: T6, MPP6, Q9NZW5
T6 sequence (Q9NZW5 125-219, limits assumed, looked up): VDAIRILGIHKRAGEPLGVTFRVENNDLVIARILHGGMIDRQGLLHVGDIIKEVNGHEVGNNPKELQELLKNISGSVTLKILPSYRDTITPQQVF

PDLIM1, O00151 = molecular target: PDLIM1, O00151
Chain of PDLIM1, O00151 (O00151 1-87): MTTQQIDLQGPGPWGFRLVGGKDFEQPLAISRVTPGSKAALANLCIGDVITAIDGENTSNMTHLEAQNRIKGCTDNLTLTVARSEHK

RADIL, Q96JH8 = molecular target: T7, RADIL, Q96JH8
T7 sequence (Q96JH8 971-1071, limits assumed, looked up): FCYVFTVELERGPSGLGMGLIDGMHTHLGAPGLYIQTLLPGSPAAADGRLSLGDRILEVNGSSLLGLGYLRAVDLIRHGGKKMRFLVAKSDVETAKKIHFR

SCRIB_2, Q14160 = molecular target: SCRIB_2, Q14160
Chain of SCRIB_2, Q14160 (Q14160 857-960): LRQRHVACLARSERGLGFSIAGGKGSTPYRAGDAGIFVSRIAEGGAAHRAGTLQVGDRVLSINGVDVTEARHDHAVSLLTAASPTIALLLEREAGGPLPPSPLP

SCRIB_3, Q14160 = molecular target: SCRIB_3, Q14160
Chain of SCRIB_3, Q14160 (Q14160 999-1103): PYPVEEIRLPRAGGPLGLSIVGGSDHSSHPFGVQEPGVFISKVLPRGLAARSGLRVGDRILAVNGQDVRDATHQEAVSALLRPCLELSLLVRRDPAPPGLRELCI

SHANK1, Q9Y566 = molecular target: T8, SHANK1, Q9Y566
T8 sequence (Q9Y566 658-767, limits assumed, looked up): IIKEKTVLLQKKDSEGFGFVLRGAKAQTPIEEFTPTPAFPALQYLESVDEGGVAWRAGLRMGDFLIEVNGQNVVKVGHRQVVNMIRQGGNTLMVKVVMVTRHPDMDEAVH

SIPA1L2, Q9P2F8 = molecular target: T9, SIPA1L2, Q9P2F8
T9 sequence (Q9P2F8 945-1036, limits assumed, looked up): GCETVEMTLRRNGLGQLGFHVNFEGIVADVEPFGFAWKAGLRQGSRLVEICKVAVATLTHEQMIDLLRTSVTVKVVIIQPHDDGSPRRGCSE

TJP1_2, Q07157 = molecular target: TJP1_2, Q07157
Chain of TJP1_2, Q07157 (Q07157 181-274): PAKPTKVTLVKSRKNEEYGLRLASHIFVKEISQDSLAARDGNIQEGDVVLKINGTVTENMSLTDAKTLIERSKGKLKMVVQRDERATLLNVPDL

TJP2_1, Q9UDY2 = molecular target: TJP2_1, Q9UDY2
Chain of TJP2_1, Q9UDY2 (Q9UDY2 24-128): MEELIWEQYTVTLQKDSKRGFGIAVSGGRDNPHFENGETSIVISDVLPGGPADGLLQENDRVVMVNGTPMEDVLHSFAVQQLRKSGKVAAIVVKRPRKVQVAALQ

Measured: pKd

Chain of AHNAK1, Q09666 (Q09666 4-100): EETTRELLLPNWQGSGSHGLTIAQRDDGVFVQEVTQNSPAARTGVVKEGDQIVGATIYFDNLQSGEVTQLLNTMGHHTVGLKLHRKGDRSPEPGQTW

DTTVPESEDL [MYOZ2, Q9NPC6]
3.7: ARHGEF11, O15085
5.26: LDB3, O75112
5.1: PDLIM1, O00151
below the threshold: all other assays above

PDGQCTVTEV [RNF146, Q9NTX7]
3.5: DLG4_3, P78352
3.53: MAGI1_2, Q96QZ7
3.86: MAGI2_2, Q86UL8
4.53: DLG1_1, Q12959
4.04: GOPC, Q9HD26
4.17: GORASP2, Q9H8Y8 | IL16_1, Q14005
4.62: RADIL, Q96JH8
3.92: MPP6, Q9NZW5
4.98: DLG3_2, Q92796
3.87: DLG3_1, Q92796
5.07: DLG4_2, P78352
4.21: MAGI3_2, Q5TCQ9
4.72: SCRIB_3, Q14160
4.28: SCRIB_2, Q14160
5.09: ARHGEF11, O15085
4.7: GRASP, Q7Z6J2
below the threshold: all other assays above

SAKVRTVTSV [RASL11B, Q9BPW5]
4.78: DLG3_2, Q92796
5.08: DLG4_2, P78352
5.74: MAGI3_2, Q5TCQ9
4.54: DLG1_3, Q12959 | GRASP, Q7Z6J2
4.45: ARHGEF11, O15085
3.94: RADIL, Q96JH8
4.07: GOPC, Q9HD26
4.56: GORASP2, Q9H8Y8
4.42: DLG1_1, Q12959
4.14: TJP2_1, Q9UDY2
4.93: DLG4_3, P78352
5.92: MAGI2_2, Q86UL8
5.51: MAGI1_2, Q96QZ7
4.33: SCRIB_3, Q14160
3.84: DLG3_1, Q92796
below the threshold: all other assays above

NHSSSPETTA [TRMT13, Q9NUP7]
4.09: DLG3_2, Q92796
below the threshold: all other assays above

PAPSSGKDYV [CLDN1, O95832]
3.71: TJP2_1, Q9UDY2
3.88: MPP6, Q9NZW5
4: RADIL, Q96JH8
3.67: GORASP2, Q9H8Y8
below the threshold: all other assays above

From publication PMC9482650, “Quantitative fragmentomics allow affinity mapping of interactomes” (Nature Communications, 2022)
